# Experimental data as given in article PMC11323955.
# Biological target: MBP-MlCYC2A (M. lewisii)
# Assay: SPR
row,Substance,Kd [nM]
1,GST-MlBOP (natural protein),1440
2,GST-bop-1 (GST-tagged MlBOP with the H39L point mutation) (natural protein),968
